Each block holds one molecule with its values, some of them ahead of it.
Target: chemokine receptor CXCR3 (human) (UniProt P49682)
Assay: cell-based or functional assay

UniProt P49682, sequence (P49682 whole entry): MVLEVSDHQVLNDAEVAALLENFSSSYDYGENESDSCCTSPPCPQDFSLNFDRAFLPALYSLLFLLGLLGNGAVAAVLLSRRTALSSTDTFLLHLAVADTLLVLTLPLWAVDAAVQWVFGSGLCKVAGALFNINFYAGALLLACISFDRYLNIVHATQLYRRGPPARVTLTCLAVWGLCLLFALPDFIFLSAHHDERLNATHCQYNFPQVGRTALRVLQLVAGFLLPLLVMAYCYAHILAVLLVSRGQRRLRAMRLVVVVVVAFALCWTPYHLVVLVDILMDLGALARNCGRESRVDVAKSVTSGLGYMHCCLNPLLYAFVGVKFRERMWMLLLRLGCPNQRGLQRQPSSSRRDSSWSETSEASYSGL

chemokine concentration at maximum cell migration of CD8+ TSCM: 100 ng/mL
chemotactic index, in-vitro transwell migration of human T cells: 2
Molecule: CXCL10 (from UniProt P02778 22-98) (ligand)

chemokine concentration at maximum cell migration of CD8+ TSCM: 100 ng/mL
chemotactic index, in-vitro transwell migration of human T cells: 2
fold enrichment of CXCR3+ cells after 21 days stimulation with CMV epitopes and CXCL11: 10000 fold
B1: CXCL11 (ligand, UniProt O14625 22-94, looked up)
chain: FPMFKRGRCLCIGPGVKAVKVADIEKASIMYPSNNCDKIEVIITLKENKGQRCLNPKSKQARLIIKKVERKNF

chemokine concentration at maximum cell migration of CD8+ TSCM: 100 ng/mL
chemotactic index, in-vitro transwell migration of human T cells: 2
B2: CXCL9 (ligand, UniProt Q07325 23-125, looked up)
chain: TPVVRKGRCSCISTNQGTIHLQSLKDLKQFAPSPSCEKIEIIATLKNGVQTCLNPDSADVKELIKKWEKQVSQKKKQKNGKKHQKKKVLKVRKSQRSRQKKTT
